Data on one substance can be found in paper PMC11723951.

This experiment has as its target CBX5^MBD chimera (CBX5 in which the chromodomain was replaced by the MeCP2 methyl-DNA binding domain) (UniProt P51608).

“KMT5C heterochromatin retention domain (HRD), wild type, fluorescent fusion (domain or fragment)” returned a chromocenter partition coefficient of the HRD in Suv39h1/2 null MEFs upon CBX5^MBD co-expression (1.33 without it; 11.54 in wild-type cells), live-cell imaging of 4.43.
